Measurements as given in patent US8362216B2, “Method of detection using antibodies that specifically bind hedgehog-derived polypeptides” (The Johns Hopkins University School of Medicine, priority 1994, dated 2013).
One block for each molecule: values may come before it.

Tests used:
[1] = target: T1, in-vitro translated Hh protein (Drosophila melanogaster, UniProt Q02936); experiment: Proteinase inhibitor studies on auto-proteolysis of in vitro translated Hh protein; format: biochemical; details: inhibitor added to translation reaction
T1 construct: The full length form of the hh protein (F) migrates with a mobility corresponding to a relative molecular mass of 46 kD; made in house; host or cells: cell-free: TNT coupled transcription-translation system (Promega)
T1 sequence (Q02936 1-471): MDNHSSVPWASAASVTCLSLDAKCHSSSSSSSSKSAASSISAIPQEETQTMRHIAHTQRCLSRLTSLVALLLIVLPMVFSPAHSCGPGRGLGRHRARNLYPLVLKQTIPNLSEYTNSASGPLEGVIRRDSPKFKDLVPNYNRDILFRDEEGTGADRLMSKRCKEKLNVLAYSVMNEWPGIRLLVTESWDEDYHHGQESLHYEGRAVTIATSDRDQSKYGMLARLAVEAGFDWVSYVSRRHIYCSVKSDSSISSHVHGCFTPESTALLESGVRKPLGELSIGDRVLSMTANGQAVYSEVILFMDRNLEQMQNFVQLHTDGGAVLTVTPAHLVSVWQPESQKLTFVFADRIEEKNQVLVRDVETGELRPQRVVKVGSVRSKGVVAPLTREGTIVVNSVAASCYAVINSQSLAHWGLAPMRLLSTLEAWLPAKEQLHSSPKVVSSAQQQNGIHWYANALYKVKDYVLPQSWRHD
Procedure: In some cases the effectiveness of an inhibitor was assayed by determining if addition of an inhibitor to a completed translation reaction will inhibit the self-processing that normally continues to occur.

[2] = Solubility and proteolytic stability of purified Hh carboxy-terminal fragments; format: physicochemical; details: purified protein
Procedure: Protein expression and purification: Drosophila melanogaster Hh protein in which most of the amino-terminai signaling domain and signal sequence have been replaced by a hexa-histidine tag (His6Hh-C25) was expressed as previously described (Porter et al., 1995). SeMet His6Hh-C25 was prepared by expression in E. coli strain B834 (DE3) pLysS, a methionine auxotroph, and growth in minimal media as previously described (Leahy et al., 1994). This His6-taggcd protein was purified on a Ni^++-NTA agarose column and autocleavage stimulated by addition of 50 mM DTT. After removal of the DTT by dialysis, the cleaved protein was passed over a Ni^++-NTA agarose column and the Hh carboxy-terminal domain, Hh-C25, collected in the column run through. Hh-C25 was subjected to limited proteolysis by overnight incubation with 1:500 (w:w) subtilisin (Boehringer Mannheim) at 4° C. A protease-stable fragment of approximately 17 kDa, Hh-C17, was identified by SDS-PAGE and purified by anion-exchange chromatography utilizing a Mono-Q column (Pharmacia). The amino- and carboxy-terminal residues of Hh-C17 were determined to be Cys-258 and Ser-408, respectively, by mass spectral analysis of cyanogen bromide-cleaved fragments. Mass spectral analysis was performed as previously described (Porter et al., 1996a).
Drosophila melanogaster Hh in which the signal sequence and most of the amino-terminal signaling domain have been replaced by a hexahistidine tag was expressed in E. coli as previously described (Porter et al., 1995). Following purification with Ni^++-NTA agarose, this protein cleaves itself in vitro in the presence of either DTT or cholesterol to liberate the 25 kDa Hh-C fragment (Hh-C25, residues Cys-258 to Asp-471). […] All residues absolutely conserved in Hh-C homologues (Porter et al., 1996a), including the nematode sequences, are contained in Hh-C17. To determine if Hh-C17 retained autoprocessing activity, a mutant version of His-tagged Hh-C containing a termination codon at residue position 409 (His6Hh-C17) was expressed and assayed for autocleavage in the presence of DTT and cholesterol.

[3] = test system: neural and cement gland marker gene expression; experiment: Xenopus animal (blastula) cap explants / Keller sandwiches from RNA-injected embryos, RT-PCR of marker genes; format: cell-based
Procedure: cDNAs encoding full-length Xenopus hedgehogs, or encoding amino terminal or carboxy terminal domains linked to secretory leader sequences were transcribed in vitro to yield translatable messenger RNA. The synthetic messenger RNAs, and control mRNAs, were microinjected into the animal poles of cleavage stage Xenopus embryos, which were allowed to develop to the blastula stage, at which time the animal cap explants were prepared from the upper one fourth of the embryo. These blastula cap explants were then cultured in vitro in physiological saline in the presence or absence of the transforming growth factor beta family member, recombinant human activin A. All explants were allowed to develop until control embryos had grown to neurula stage, or to tadpole stage. Importantly, blastula caps left untreated differentiate from ectoderm into atypical epidermis. Blastula caps treated with activin differentiate into mesodermal and neural cell types. Thus, the question was whether hedgehog, or its proteolytic derivatives, would change the differentiation of cells away from becoming epidermis, and into another cell type. A second question was whether hedgehog can work with activin to alter the normal response of the tissue to either factor by itself.
Explants were then extracted to yield mRNA by methods commonly used by those of skill in the art, which was used as template with reverse transcriptase to yield cDNA. The cDNA was then used as template with various sets of primers for PCR for specific genes, reverse-trahscriptase-polymerase chain reaction, or RT-PCR. […] Thus, the darker bands correspond to a greater level of the specific mRNA.
(A) Isolation of dorsal explants from injected embryos for the preparation of Keller sandwiches (Keller and Danilchik, 1988; Doniach, et al, 1992; redrawn from Doniach, 1993). (B) Keller sandwiches were made from uninjected (lanes 1 and 2) and X-bhh-injected (lanes 3 and 4) embroys, total RNA was isolated when control embryos reached stage 20, and RT-PCR was used to analyze the expression of XAG-1 and neural markers. XAG-1 is a cement gland marker, XANF-2 is an anterior pituitary marker, Otx-A is a forebrain marker, En-2 demarcates the midbrain-hindbrain boundary, Krox-20 marks rhombomeres 3 and 5 of the hindbrain and X/Hbox-6 is a spinal cord marker. N-CAM is a general neural marker whose expression is not restricted along the anteroposterior axis. […] Note that expression of XAG-1 and anterior neural markers is stimulated by X-bhh treatment, whereas expression of posterior neural markers is suppressed.

auto-proteolysis = experiment: In vitro translation of wild-type and mutant Hh proteins (mapping of auto-proteolysis); format: biochemical, Drosophila; zebrafish

Inhibition of auto-proteolysis of in-vitro translated Hh protein [1]: do not block
Molecule: CC(C)C[C@H](NC(=O)[C@H]1O[C@@H]1C(=O)O)C(=O)NCCCCN=C(N)N [E-64]

Molecule: CC(=O)N[C@@H](CC(C)C)C(=O)N[C@@H](CC(C)C)C(=O)N[C@H](C=O)CCCNC(=N)N [leupeptin]
Inhibition of auto-proteolysis of in-vitro translated Hh protein [1]: do not block

Molecule: Hh-C17: ~17 kDa subtilisin-stable fragment of Hh-C25, residues Cys-258 to Ser-408
Solubility [2]: improved solubility | Stability to proteolysis [2]: protease-stable

Inhibition of auto-proteolysis of in-vitro translated Hh protein [1]: do not block
Molecule: a, anti-trypsin: proteinase inhibitor, probably α1-antitrypsin

Molecule: prolactin [reference compound]
Induction of pituitary gene XANF1B [3]: does not lead to this elevated level of pituitary gene

B1: H273A: zebrafish twhh protein with H273A mutation (protein, UniProt Q90419 27-416, looked up, variant H273A)
Tiggy-winkle hedgehog protein: CGPGRGYGKRRHPKKLTPLAYKQFIPNVAEKTLGASGKYEGKITRNSERFKELIPNYNPDIIFKDEENTNADRLMTKRCKDKLNSLAISVMNHWPGVKLRVTEGWDEDGHHLEESLHYEGRAVDITTSDRDKSKYGMLSRLAVEAGFDWVYYESKAHIHCSVKAENSVAAKSGGCFPGSGTVTLGDGTRKPIKDLKVGDRVLAADEKGNVLISDFIMFIDHDPTTRRQFIVIETSEPFTKLTLTAAALVFVGNSSAASGITATFASNVKPGDTVLVWEDTCESLKSVTVKRIYTEEHEGSFAPVTAHGTIIVDQVLASCYAVIENHKWAHWAFAPVRLCHKLMTWLFPARESNVNFQEDGIHWYSNMLFHIGSWLLDRDSFHPLGILHLS
Auto-proteolysis (processing) of in vitro translated protein (auto-proteolysis): blocked

B2: activin: recombinant human activin A, transforming growth factor beta family member (protein, UniProt P08476 311-426, looked up)
Inhibin beta A chain: GLECDGKVNICCKKQFFVSFKDIGWNDWIIAPSGYHANYCEGECPSHIAGTSGSSLSFHSTVINHYRMRGHSPFANLKSCCVPTKLRPMSMLYYDDGQNIIKKDIQNMIVEECGCS
Induction of pituitary gene XANF1B [3]: also express the pituitary gene

Inhibition of auto-proteolysis of in-vitro translated Hh protein [1]: do not block
B3: soybean trypsin inhibitor: proteinase inhibitor (protein, UniProt P01070 25-205, looked up)
Trypsin inhibitor A: DFVLDNEGNPLENGGTYYILSDITAFGGIRAAPTGNERCPLTVVQSRNELDKGIGTIISSPYRIRFIAEGHPLSLKFDSFAVIMLCVGIPTEWSVVEDLPEGPAVKIGENKDAMDGWFRLERVSDDEFNNYKLVFCPQQAEDDKCGDIGISIDHDDGTRRLVVSKNKPLVVQFQKLDKESL

B4: noggin: independent neural inducer (protein, UniProt P49011 20-222, looked up)
Noggin: RIDQGGCQHYLHIRPAPSENLPLVDLIEHPDPIYDPKEKDLNETLLRTLMVGHFDPNFMATILPEERLGVEDLGELDLLLRQKPSGAMPAEIKGLEFYEGLQSKKHRLSKKLRRKLQMWLWSQTFCPVLYTWNDLGTRFWPRYVKVGSCYSKRSCSVPEGMVCKAAKSMHLTILRWRCQRRVQQKCAWITIQYPVISECKCSC
Induction of general neural gene NCAM [3]: induces the general neural gene, NCAM | Induction of pituitary gene XANF1B [3]: able to induce pituitary gene and forebrain gene

B5: H270A: zebrafish shh protein with H270A mutation (protein, UniProt Q92008 24-418, looked up, variant H270A)
Sonic hedgehog protein: CGPGRGYGRRRHPKKLTPLAYKQFIPNVAEKTLGASGRYEGKITRNSERFKELTPNYNPDIIFKDEENTGADRLMTQRCKDKLNSLAISVMNHWPGVKLRVTEGWDEDGHHFEESLHYEGRAVDITTSDRDKSKYGTLSRLAVEAGFDWVYYESKAHIHCSVKAENSVAAKSGGCFPGSALVSLQDGGQKAVKDLNPGDKVLAADSAGNLVFSDFIMFTDRDSTTRRVFYVIETQEPVEKITLTAAALLFVLDNSTEDLHTMTAAYASSVRAGQKVMVVDDSGQLKSVIVQRIYTEEQRGSFAPVTAHGTIVVDRILASCYAVIEDQGLAHLAFAPARLYYYVSSFLFPQNSSSRSNATLQQEGVHWYSRLLYQMGTWLLDSNMLHPLGMSVNSS
Auto-proteolysis (processing) of in vitro translated protein (auto-proteolysis): blocked

B6: Hh-C25: 25 kDa Drosophila Hh-C fragment, residues Cys-258 to Asp-471 (protein)
chain: CFTPESTALLESGVRKPLGELSIGDRVLSMTANGQAVYSEVILFMDRNLEQMQNFVQLHTDGGAVLTVTPAHLVSVWQPESQKLTFVFADRIEEKNQVLVRDVETGELRPQRVVKVGSVRSKGVVAPLTREGTIVVNSVAASCYAVINSQSLAHWGLAPMRLLSTLEAWLPAKEQLHSSPKVVSSAQQQNGIHWYANALYKVKDYVLPQSWRHD
Solubility [2]: poorly soluble in the absence of detergents | Stability to proteolysis [2]: susceptible to further proteolytic breakdown when concentrated to 1 mg/ml or greater
